Assay results as given in a protein production outcome set (Wang et al. 2014).

Test: label from the status in PepcDB records

Sequence	protein production
MTQSAPEFKVLQSIAFLAVVLQSSLLYTMNQGNVLLEQSLIMGMLFNLAKFSAPAFIFIVGFHLIRHYTKQLVYKEYISEKATHLLIPYFFWSILYLLTTNDLITLQGGIKSLLLGTAAPHLWYVIMMFQIHLLFPLLCTLFYWFQKRTENKKDIYKYMTFFACLYFLLMWFSSHYIFNGEKLTSSTILHYTDRSFLFYSFYFVMGGIAAVPLKTWRLFVMKHIPLITILFFILFLFINYELFSFYGANSIHLTVSTYLKPSMFLYIVCEIIILYVLSIMIVQRRGFLYKTLRFIGNYTYGAYLAHLFFLQLCTKFLSLFTLQENTILYSLLLFVLTAIISISTMVICSTIPFHTWITGPSPTTKMKWTKVVFRKNHKKLFKPYI	failed
MTQTTPQPDPSRLRDELVRLHGKASPEWDSLVRLDPRFVDAYLKFAGVPQRRNHLDDKTRAFIALAADACATQLYAPGVARHIERALSFGATREELIEVLELVSTIGIHTSNVGVPVLLEVLEEEGLRKGAPPLDERRQKLKAEFETNRGYWHPTWEGLLELDPDLFEAYVEFSSVPWRTGVLSPKIKEFMYCAFDASATHLYVPGLKLHIRNALRYGATAEELMELLEIVSVTGIHGAELGAPLLEAALKRSGAAAGEPHA	not failed
MTQVRETVSFKAGDVILYPGVPGPRDRAYRVLEGLVRLEAVDEEGNALTLRLVRPGGFFGEEALFGQERIYFAEAATDVRLEPLPENPDPELLKDLAQHLSQGLAEAYRRIERLATQRLKNRMAAALLELSETPLAHEEEGKVVLKATHDELAAAVGSVRETVTKVIGELAREGYIRSGYGKIQLLDLKGLKELAESRGQGR	not failed
MTQVSIIVPVLNEESTIHSAVSRLCRDFPDCELIVVDGGSTDATAELAALHATVIGSERGRAKQMNEGARHASGGILWFIHADTAIEPEALGQIRSVLADPAVVAGGLTLRFDRRTPALNYLAWTSNARARRLHHIFGDQAMFIRRTAFDELGGFPDLAIMEDLEMSRRLHRRGPLRLLPATSTASSRRLTAHGTWRMIAFMQYLKLLYFAGADPEAIRARYTAGPRLFPKRNPATLEHHHHHH	failed
MTQYTHIRNATGKLTIKNTTFLIDPFLAPKDTYPGFEGTFNYQQRMPMVDLPLSMDDLLSNVTAVVVTHTHLDHWDDTAINSIPKSLPIFVQNTADKELITSQGFIDVRIIFESLEFNGITLRKTGGSHGTVEMYANPVLAPLAGDAMGVIFEAADEPTVYLVGDTVWTSDVEKALLRFDPNVIIMNTGYAQILGFEDSIIMGTKDIGRMVVRKPEAKIIAVHMDTVNHTATSRKDVRKFIKGNNIESHVAVPEDGETITL	not failed
MTRAINDPGNEDPGSLLETDADALLGGAAAQAPEERCRLAAQACIRACERYLALCTESSREQRQHAGDCADLCRLAALLLERRSPWAPAACELAARYALACAERCDGDEPLERECAGACRRFVEACRPLLPALEHHHHHH	not failed
MTRAKAPMEGVKLNSLLKVEDFATQSQFLGVNPIWNNNSTQLVEPPSIVNDEEEETEPLLPVEFTLVERNLEDGLVEEIIFSSGGEIDVYDLQGLCDKVGWPRRPLVKLAAALKNSYMVATLHSVMKSSSDSDSSEGGDGEKQQEKKLIGMARATSDHAFNATIWDVLVDPEYQGQGLGKALVEKLVRALLQRDIGNISLFADSQVVDFYQNLGFEADPEGIKGMFWYPK	failed
MTREIIPILPEAPVETARSGNALPLLREIAEHLHHLLETGEASTIDLSALPLTPGDLEWLRAELGGGEVSVTLHADGASTLDETAFPGVWWIIHRNAQGAVTTQFIEVAFVPELVKSPRADVAAARAALVLRMADL	not failed
MTRKSFPFFLLGLILTVGIDQAVKYWVMHNIPLGTETPLLPFLSLYHVRNSGIAFSFFSSFSHWGLIFLTLIILIFLLWLWKNTQYNKSLTRFGFTLIIGGAIGNLIDRICFYYVIDYILFYINDVFYFAVFNLADTFITLGVIAIIIEELLSWIKRKSTFSE	failed
MTRLFSRPYPLGATLNKEGCNFSIHAPGVKDIQLALFASDGSYSLHDLPNEYAGIRHTFIPDIKPGQKYGYVVTRRDEPLLISDPYAKSLDKALHYHPPYTPAKSFDMPKCVVIE	failed
MTRPAHPISRYPVPELAALPDDIRQRILEVQDKAGFVPNVFLTLAHRPDEFRAFFAYHDALMLKDGGLTKGEREMIVVATSAANQCLYCVVAHGAILRIYEKKPLVADQVAVNYLKADIPPRQRAMLDFALKVCKASHEVNEADFEALREHGFTDEDAWDIAAITAFFGLSNRMANTIGMRPNDEFFLMGRVPKSK	not failed
MTRRAAEEILPSSLFRDPDTERVTARTGAYLKIGVIAPALMVADVWLAQQLFPGFDAGAQFISELGGPEAPMPEIFNYGMVIAGIAGLFAGAGFAHALEHAGGRRVVSAFAGLFVALTGLGAIFAGIFHWPDPMHRACGVGLGIQFAPLFAAWALWGKPDYRRLAQFSLGWFFGLLLVFALLTGVWNVRTGYDVGYWQRGHAFLGLLWLAIAAWTLERGWRAAVMSEIETASA	failed
MTRRGVALVARRLPSSPGRVYAVKIDEGEDVHSVLSSLAEAEDLGFAMVTGIGGMAEATVAFYSPPEATYYTVDVKPPEGRVIEVAAMTGNIVKTSQGYSVHIHVALGVSPGKSISGHLVKGVVKPFMEVFVVELVSGQGTPGTSVFDHREGFKASYKRLELEHHHHHH	failed
MTRRPLLLPALGLALGVGLGLEGATVPPAALGALPLALLPRLAPLAFAAAGWLAAASARVPPAAPPDGAVLVRGRVVGAPDRLEDRLRFPVRTAGGALLEAWAEPTPWPLALGDEVLFRATLRAPAGRRNPGGRDPGDRLRSGGAALVALADGPVVRTAAPAAASRLERARDRLAEAAGRWLPPDQAALVRAIGTGDRAALDPEASASFARSGLAHVLAVSGFHLVVVAFGLERLLRALLLRADAVAARADPRRVAAALTLPCALLYALATGAGAPVVRAALAAAVILAGALLDRAADPLNSLALAALAILAAEPAALLDASFQLSFAAVAGLALWATPLRGALPVARPAPGSWRARLLEPFLSGAAATVAATLATAPVLAFHFRQLPLLGVAANVAAIPLGAALTALAALAAVAAAASPLAAAPFLLAAGPLAAALRAVSDAAAAPRWGAVGLASPGGWAAAAATALVLGVPALPRRLRLGAGALAAALLLLPGPLRAAAARARGGLEVIFVSVGQGDAALLRLPDGSAVLVDGGGAAGGGPDPGARDLVPLLRDLGVRRLEAVFVSHPHPDHVLGLEAVARAFPVARAYSNGDRGDGPAREVLAALAPVTLAPGEAWERAGVRFEALGGDRTPFAANDASLVLRATYGATTFLFPGDVEAAGEAAAVARGGLRADVVKIPHHGSRTSSTEPFVRAVRARWAVACLGAHNRFGFPHPEPLARWAAAGAEVLRTDEGAVRFLSDGRAVRRVEAGSVLDALATWREQP	failed
MTRRTAFFFDELCLWHAAGPHALTLPVGGWVQPPAAAGHAESPETKRRLKSLLDVSGLTARLQLRSAPPASDEDLLRVHPAHYLERFKALSDAGGGSLGQDAPIGPGSYEIARLSAGLAIAALDAVLAGEADNAYSLSRPPGHHCLPDQAMGFCFFANIAVAIEAAKARHGVERVAVLDWDVHHGNGTQAIYYRRDDVLSISLHQDGCFPPGYSGAEDIGEDRGRGFNLNVPLLPGGGHDAYMQAMQRIVLPALERFRPQLIVVASGFDANAVDPLARMQLHSDSFRAMTAMVRDAAERHAGGRLVVVHEGGYSEAYVPFCGLAVIEELSGVRSAVRDPLRDFIELQQPNAAFRDFQRQRLEELAAQFGLCPAQPLQAAR	failed
MTRTISRILVTGTSGQLGALVIEELLKKIHASHLIAAARDPKALMAFSRRGVETRLLDYTDQISIEAAFQGVERLLLVSSNVIDQRLVQHRNVIEAAARAGVGLFAYTSLLHADNSSLLLAKDHVQTEALLKGSGIPYVLLRNGWYTENYTDSIGAALVHGAVLGSAGTGRIAAATRADYAAAAAAILASDVDQAGRTYELAGDEAFTMPEYAAEIAQQSGKPVIYRDLPEAEYAAILMQVGLPESFAAILAQSDIGASQGALFDDSHQLSTLIGRPTTPLREVVAKALSAVR	failed
MTRTVTGDTVQTRWGPVQVRVTVRNGVITEVTAVACPQENPKDREINSYAIPQLRREALAAQSAQIDSVSGATYTSDGYRQSLQSALDSAGLLEHHHHHH	not failed
MTSASAALPQQPGRTKAFLRLVMIEHSVFALPFAYIAALTAMFQWDRNIHWVRLLLVTVAMVGLRTFAMAANRIIDREIDARNPRTAHRELVTGAMSVRHAWTGALVALVFFLGAAALLNPLCLALAPIAVIPMVVYPYGKRFTNFPQAILGLAQAMGPVGGWLAISGEWSWDAVILGLAVGVWIGGFDLIYACQDVETDREVGVMSVPARFGIQAAIWGARVCHAITTALLVWYAFATDAGAFFWFGLVIVAGAFLYEHSIVKPHDLSRLNRAFFSTNGFIGISLFVCALGDLLVRGLTV	failed
MTSGATRYRLSCSLRGHELDVRGLVCCAYPPGAFVSVSRDRTTRLWAPDSPNRSFTEMHCMSGHSNFVSCVCIIPSSDIYPHGLIATGGNDHNICIFSLDSPMPLYILKGHKNTVCSLSSGKFGTLLSGSWDTTAKVWLNDKCMMTLQGHTAAVWAVKILPEQGLMLTGSAGKTVKLWKAGRCERTFSGHEDCVRGLAILSETEFLSCANDASIRRWQITGECLEVYYGHTNYIYSISVFPNCRDFVTTAEDRSLRIWKHGECAQTIRLPAQSIWCCCVLDNGDIVVGASDGIIRVFTESEDRTASAEEIKAFEKELSHATIDSKTGDLGDINAEQLPGREHLNEPGTREGQTRLIRDGEKVEAYQWSVSEGRWIKIGDVVGSSGANQQTSGKVLYEGKEFDYVFSIDVNEGGPSYKLPYNTSDDPWLTAYNFLQKNDLNPMFLDQVAKFIIDNTKGQMLGLGNPSFSDPFTGGGRYVPGSSGSSNTLPTADPFTGAGRYVPGSASMGTTMAGVDPFTGNSAYRSAASKTMNIYFPKKEAVTFDQANPTQILGKLKELNGTAPEEKKLTEDDLILLEKILSLICNSSSEKPTVQQLQILWKAINCPEDIVFPALDILRLSIKHPSVNENFCNEKEGAQFSSHLINLLNPKGKPANQLLALRTFCNCFVGQAGQKLMMSQRESLMSHAIELKSGSNKNIHIALATLALNYSVCFHKDHNIEGKAQCLSLISTILEVVQDLEATFRLLVALGTLISDDSNAVQLAKSLGVDSQIKKYSSVSEPAKVSECCRFILNLL	failed
MTSHHAIEVTKTVLEVADVAWTAVETYHHHHHHQDENHESTNPISDPRDRELEALRQENRRLRTLLESNLKLFETLAESAAFSHDCPSDLYARLVTMVTSRDFLARLENLRQALSNGTQNQFPFKEPTEDDVKTVEVLIEMDHQEPSWWVLVTDDMVPSNVEEQSAIDNEHYIVVNEEHVIDAVAHFLAKCIMSNPKAKNLKPEELQKLLVQEVTALSKVGKVVDIWHAGKMFYTLSTWGLAFGGLYQARGVLKIAAKGVHATSKVVLRAL	failed
MTSIWGQIQHILQNTLAPGLFKVWISPLAGEVDGSTLRVEAPNEFVAGWVRDRLFEDIRTAACGVIGDTVEVVVTAGAPAAAAPRPVLAPRPAVVEVVPTAAPVPSVVPAVEARPSGHAPRRLSAETQQAQEQLGLPLDWAPVPQSRTNWRFSFDDFIVGPNNELACAAARGMCRDGLMTDTLFLSSGPGLGKTHLLHAVGRSLCESSNRSNPNVAYLTAEEFASRLIAALKARDVERFKARYRDVDVLLLEDVHFLQGKEKMQDEVLATVKALQSRGSRIVFSSSFAARDLKNVDNQLVSRFCSGFLAGIERPDFDTRRRILREKARIYQVMLPDNVTDLLAERISTDVRQIESCLHNLILKAKLLNRQISLEMAFEIIGNYAQAETQLDFEGIVRMVCEGFGLSPEQLNSRSRKREYVVARNAAYLLARKHTDLSLKEIGDRFNRRHSTVLKGITALEREMNRETPLGRQVANTISLLERNGRITHARH	failed
MTSKSRPNRDLAGRLALAAQLALVLVLAAAPELALAQSTMPGQQLLTFAKNFIIAPIALFAIVISGVAAFIRPDLIKTTGYIAIIAVILYFLLANADRLMQAIRAG	failed
